One experiment deals with T1, human IL-1α (human, UniProt P01583 113-271).
T1 sequence (looked up): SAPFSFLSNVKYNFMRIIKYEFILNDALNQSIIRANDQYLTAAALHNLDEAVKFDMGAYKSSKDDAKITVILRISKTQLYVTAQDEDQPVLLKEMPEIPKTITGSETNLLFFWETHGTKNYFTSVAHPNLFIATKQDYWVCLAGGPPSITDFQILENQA
Kind of experiment: cell-based or functional assay.

Experiment [1] addresses T2, human IL-1β (human, UniProt P01584 117-269). Briefly: cell-based or functional assay.
Experiment [2] addresses T2, human IL-1β. Briefly: IC50 column of Table 63; receptor binding assay presumed.

B1: ABT2-108-533x/ABT1-122 hu IgG1/K wt (bispecific antibody, V domains shown)
VH: EVQLLESGGGLVQPGGSLRLSCAASGFTFADEGMMWVRQAPGKGLEWVSRIGQDGKNTYYADSVKGRFTISRDNSKNTLYLQMNSLRAEDTAVYYCAKYTGRILGHHLFDYWGQGTLVTVSS
VL: DIQMTQSPSSLSASVGDRVTITCRASQPIWTELNWYQQKPGKAPKLLIYGSSSLQSGVPRFSGSGSGTDFTLTISSLQPEDFATYYCQQFAYFPATFGQGTKVEIKR
For the molecule B1, in the experiment with human IL-1α, the “IL-1α IC50” value was found to be 1000 nM.

B2: ABT2-59 (other)
VL: DIQMTQSPSSLSASVGDRVTITCRASQSINVFLSWYQQKPGKAPKLLIYNASNLQSGVPSRFSGSGSGTDFTLTISSLQPEDFATYYCQQRALYPTTFGQGTKVEIKR
notes: VK dAb
Broadly, the IC50 is the concentration that gives 50% inhibition. Read a low IC50 as higher potency. Consider B2, for which, in the experiment with human IL-1β [1], the “ND50” value is greater than 1000 nM. The same molecule displayed an IC50 with human IL-1β [2] of 700 nM.

B3: ABT2-61 (other)
VL: DIQMTQSPSSLSASVGDRVTITCRASQSIRVFLSWYQQKPGKAPKLLIYNASHLQSGVPSRFSGSGSGTDFTLTISSLQPEDFATYYCQQRALYPTTFGQGTKVEIKR
notes: VK dAb
With B3, the “ND50” value with human IL-1β [1] is greater than 1000 nM. In addition, the half-maximal inhibitory concentration (IC50) with human IL-1β [2] amounted to 1000 nM.

B4: ABT2-62 (other)
VL: DIQMTQSPSSLSASVGDRVTITCRASQSIQTYLSWYQQKPGKAPKLLIYNASNLQSGVPSRFSGSGSGTDFTLTISSLQPEDFATYYCQQRALYPTTFGQGTKVEIKR
notes: VK dAb
Take B4: the “ND50” value in the experiment with human IL-1β [1] was greater than 1000 nM. Also, the IC50 with human IL-1β [2] amounted to 1000 nM.

B5: ABT2-65-17/ABT1-212 hu IgG1/K wt (bispecific antibody, V domains shown)
VH: EVQLLESGGGLVQPGGSLRLSCVASGFTFEDYQMGWVRQAPGKGLEWVSSISAMGNRTYYADSVKGRFTISRDDSKNTLYLQMNSLRAEDTAVYYCAQNLVRLGRSRWMFDYWGQGTLVTVSS
VL: DIQMTQSPSSLSASVGDRVTITCRASQRINGNLRWYQQKPGKAPKLLIYSVSQLQSGVPSRFSGSGSGTDFTLTISSLQPEDFATYYCQQGYDWPPTFGQGTKVETKR
For B5, the “IL-1α IC50” value in the experiment with human IL-1α turned out to be 100 nM.

B6: ABT2-65 (other)
VH: EVQLLESGGGLVQPGGSLRLSCAASGFTFEDYQMGWVRQAPGKGLEWVSSISAMGNRTYYADSVKGRFTISRDDSKNTLYLQMNSLRAEDTAVYYCAKNLVRTQSKMWMFDYWGQGTLVTVSS
Regarding B6, in the experiment with human IL-1β [1], the “ND50” value was 505 nM. The same molecule showed an IC50 with human IL-1β [2] of 100 nM.

B7: ABT2-65-79 (other)
VH: EVQLLESGGGLVQPGGSLRLSCVASGFTFEDYQMGWVRQAPGKGLEWVSSISAMGNRTYYADSVKGRFTISRDDSKNTLYLQMNSLRAGDTAVYYCAQNLVRLGRSRWMFDYWGQGTMVTVSS
notes: VH dAb
B7: the “ND50” value in the experiment with human IL-1β [1] came out at 2 nM. The molecule further registered an IC50 with human IL-1β [2] of 6 nM.

B8: ABT2-65-8 (other)
VH: EVQLLESGGGLVQPGGSLRLSCAASGFTFEDYQMGWVRQAPGKGLEWVSSISAMGNRTYYADSVKGRFTISRDDSKNTLYLQMNSLRAEDTAVYYCAQNLVRMDSRRWMFDYWGQGTLVTVSS
B8: the “ND50” value with human IL-1β [1] was 3 nM. The IC50 in the experiment with human IL-1β [2] was 10 nM.

B9: ABT2-65-89 (other)
VH: EVQLLESGGGLVQPGGSLRLSCVASGFTFEDYQMGWVRQAPGKGLEWVSSISAMGNRTYYADSVKGRFTISRDDSKNTLYLQMNSLRAEDTAVYYCAQNMVRLGRSRWMFDYWGQGTLVTVSS
notes: VH dAb
On to B9, for which the “ND50” value in the experiment with human IL-1β [1] was 2 nM. The same molecule registered an IC50 with human IL-1β [2] of 10 nM.

B10: ABT2-65-47 (other)
VH: EVQLLESGGGLVQPGGSLRLSCAASGFTFEDYQMGWVRQAPGKGLEWVSSISAMGNRTYYADSVKGRFTISRDDSKNTLYLQMNSLRAEDTAVYYCAKWRKRTQSKLGYFDYWGQGTLVTVSS
notes: VH dAb
With B10, the “ND50” value with human IL-1β [1] stood at 80 nM. The half-inhibitory concentration (IC50) with human IL-1β [2] was 20 nM.

B11: ABT2-65-113 (other)
VH: EVQLLESGGGLVQPGGSLRLSCAASGFTFVQYQMGWVRQAPGKGLEWVSSISAMGNRTYYADSVKGRFTISRDDSKNTLYLQMNSLRAEDTAVYYCAQNLVRLGRSRWMFDYWGQGTLVTVSS
notes: VH dAb
Take B11: the “ND50” value with human IL-1β [1] was 3 nM. In the experiment with human IL-1β [2], this molecule yielded an IC50 of 3.3 nM.

B12: ABT2-65-7 (other)
VH: EVQLLESGGGLVQPGGSLRLSCAASGFTFEDYQMGWVRQAPGKGLEWVSSISATGNRTYYADSVKGRFTISRDDSKNTLYLQMNSLRAEDTAVYYCAQNLVRTRIKMWMFDYWGQGTLVTVSS
notes: VH dAb
B12: in the experiment with human IL-1β [1], the “ND50” value was 200 nM. Also, the IC50 with human IL-1β [2] amounted to 30 nM.

B13: ABT2-65-81 (other)
VH: EVQLLESGGGLVQPGGSLRLSCVASGFTFEEYQMGWVRQAPGKGLEWVSSISAMGNRTYYADSVKGRFTISRDDSKNTLYLQMNSLRAEDTAVYYCAQNLVRLGRSRWMFDYWGQGTLVTVSS
notes: VH dAb
As to B13, the “ND50” value with human IL-1β [1] turned out to be 2 nM. In the experiment with human IL-1β [2], this molecule returned an IC50 of 10 nM.

B14: ABT2-65-154 (other)
VH: EVQLLESGGGLVQPGGSLRLSCAASGFTFEDYQMGWVRQAPGKGLEWVSSISAMGNRTHYADSVKGRFTISRDDSKNTLYLQMNSLRAEDTAVYYCAQNLVRIRRTKWMFDYWGQGTLVTVSS
notes: VH dAb
As for B14, the “ND50” value with human IL-1β [1] is 1.5 nM. Further, in the experiment with human IL-1β [2], the IC50 is 3 nM.

B15: ABT2-65-140 (other)
VH: EVQLLESGGGLVQPGGSLRLSCAASGFTFEDYQMGWVRQAPGKGLEWVSSISAMGNRTYYADSVKGRFTISRDDSKNTLYLQMNSLRAEDTAVYYCAENLVKISRRHWMFDYWGQGTLVTVSS
notes: VH dAb
On to B15, for which the “ND50” value with human IL-1β [1] is 1 nM. The IC50 with human IL-1β [2] stood at 2 nM.

B16: ABT2-65-82 (other)
VH: EVQLLESGGGLVRPGGSLRLSCVASGFTFEDYQMGWVRQAPGKGLEWVSSISAMGNRTYYADSVKGRFTISRDDPKNTLYLQMNSLRAEDTAVYYCAQNLVRLGRSRWMFDYWGQGTLVTVSS
notes: VH dAb
B16: in the experiment with human IL-1β [1], the “ND50” value stood at 2 nM. The IC50 with human IL-1β [2] came out at 8 nM.

B17: ABT2-65-48 (other)
VH: EVQLLESGGGLVQPGGSLRLSCAASGFTFEDYQMGWVRQAPGKGLEWVSSISAMGNRTYYADSVKGRFTISRDDSKNTLYLQMNSLRAEDTAVYYCAKWQMRTQSKLGYFDYWGQGTLVTVSS
notes: VH dAb
B17: in the experiment with human IL-1β [1], the “ND50” value was found to be 80 nM. In the experiment with human IL-1β [2], the IC50 turned out to be 20 nM.

B18: ABT2-65-6 (other)
VH: EVQLLESGGGLVQPGGSLRLSCAASGFTFEDYQMGWVRQAPGKGLEWVSSISAMGNRTYYADSVKGRFTISRDDSKNTLYLQMNSLRAEDTAVYYCAQNLVRTQSKMWMFDYWGQGTLVTVSS
notes: VH dAb
As to B18, the “ND50” value with human IL-1β [1] is greater than 1000 nM. In addition, the IC50 in the experiment with human IL-1β [2] was 30 nM.

B19: ABT2-65-85 (other)
VH: EVQLMESGGGLVQPGGSLRLSCVASGFTFEDYQMGWVRQAPGKGLEWVSSISAMGNRTYYADSVKGRFAISRDDSKNTLYLQMNSLRAKDTAVYYCAQNLVRLGRSRWMFDYWGQGTLVTVSS
notes: VH dAb
With B19, the “ND50” value in the experiment with human IL-1β [1] turned out to be 2 nM. In the experiment with human IL-1β [2], this molecule displayed an IC50 of 7 nM.

B20: ABT2-65-166 (other)
VH: EVQLLESGGGLVQPGGSLRLSCAASGFTFEDYQMGWVRQAPGKGLEWVSSISAMGGRTYYADSVKGRFTISRDNSKNTLYLQMNSLRAEDTAVYYCAQNLVRLGRSRWMFDYWGQGTLVTVSS
Regarding B20, in the experiment with human IL-1β [1], the “ND50” value turned out to be 4 nM. This molecule also came in with an IC50 in the experiment with human IL-1β [2] of 4 nM.

For the origin of these results see US20090291081A1 (AbbVie / Abbott, published 2009).
